Test results as given in paper PMC3134637.
Where two headings read alike, the source gives them in different places.

Assays:
Assay in all cases: HiTS-FLIP
[1] = molecular target: T1, 6xHis-mOrange-Gcn4p (Saccharomyces cerevisiae, UniProt P03069 1-281)
[2] = molecular target: T1, 6xHis-mOrange-Gcn4p; remark: listed apart in the source
[3] = molecular target: T1, 6xHis-mOrange-Gcn4p; remark: listed apart in the source
[4] = molecular target: T1, 6xHis-mOrange-Gcn4p; remark: listed apart in the source
[5] = molecular target: T1, 6xHis-mOrange-Gcn4p; remark: listed apart in the source
[6] = molecular target: T1, 6xHis-mOrange-Gcn4p; remark: listed apart in the source

T1 sequence (P03069 whole entry): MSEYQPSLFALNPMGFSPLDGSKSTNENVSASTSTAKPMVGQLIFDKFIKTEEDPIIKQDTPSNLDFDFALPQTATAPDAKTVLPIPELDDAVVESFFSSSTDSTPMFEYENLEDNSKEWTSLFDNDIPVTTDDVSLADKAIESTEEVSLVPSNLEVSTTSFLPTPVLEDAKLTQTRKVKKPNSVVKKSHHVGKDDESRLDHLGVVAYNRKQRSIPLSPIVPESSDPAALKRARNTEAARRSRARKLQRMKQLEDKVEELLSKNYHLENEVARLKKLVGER

B1: 10mer TATGACTCAT (dsDNA)
DNA 1: TATGACTCAT
DNA 2: ATGAGTCATA
[1]
  binding result: binds

B2: 11mer flanks C,A (dsDNA)
DNA 1: CATGACTCATA
DNA 2: TATGAGTCATG
[2]
  binding result: binds

B3: 11mer consensus TATGACTCATA (T,A flanks) (dsDNA)
DNA 1: TATGACTCATA
DNA 2: TATGAGTCATA
[3]
  binding result: binds

B4: 10mer ATGACTCATA (dsDNA)
DNA 1: ATGACTCATA
DNA 2: TATGAGTCAT
[1]
  binding result: binds

B5: 11mer flanks G,A (dsDNA)
DNA 1: GATGACTCATA
DNA 2: TATGAGTCATC
[2]
  binding result: binds

B6: adjacent half-sites ATGACGTCAT (dsDNA)
DNA 1: ATGACGTCAT
DNA 2: ATGACGTCAT
[4]
  binding result: binds

B7: 11mer flanks T,C (dsDNA)
DNA 1: TATGACTCATC
DNA 2: GATGAGTCATA
[2]
  binding result: binds

B8: 9mer ATGACTCAT (dsDNA)
DNA 1: ATGACTCAT
DNA 2: ATGAGTCAT
[5]
  binding result: binds

B9: consensus 7mer TGACTCA (dsDNA)
DNA 1: TGACTCA
DNA 2: TGAGTCA
[6]
  binding result: binds
